Data from patent US20230341395A1 (GEMINA LABORATORIES, published 2023).

Key:
[1] = molecular target: Monoclonal antibody against the SARS-CoV-2 Spike protein (A02038, Genscript)
[2] = molecular target: Monoclonal antibody against the SARS-CoV-2 Nucleocapsid protein (A02039, Genscript)
[3] = molecular target: T1, Recombinant SARS-CoV-2 Spike protein antigen (Z03501, Genscript) (SARS-CoV-2, UniProt P0DTC2 16-685); assay: dot blot dipstick, gold nanoparticles with fusion protein and no antibody
T1 construct: also called S antigen; S protein antigen

[4] = molecular target: T2, Recombinant SARS-CoV-2 Nucleocapsid protein antigen (Z03488, Genscript) (SARS-CoV-2, UniProt P0DTC9 1-419); assay: as above
T2 construct: also called N protein antigen; Nucleocapsid antigen

B1: Gold-binding fusion protein EMT-003 (Protein G' - linker - gold binding protein) (other)
chain: MTYKLILNGKTLKGETTTEAVDAATAEKVFKQYANDNGVDGEWTYDDATKTFTVTEKPEVIDASELTPAVTTYKLVINGKTLKGETTTEAVDAATAEKVFKQYANDNGVDGEWTYDDATKTFTVTEKPEVIDASELTPAVTTYKLVINGKTLKGETTTKAVDAETAEKAFKQYANDNGVDGVWTYDDATKTFTVTEGGGGSGGGGSGGGGSASGGGMHGKTQATSGTIQSMHGKTQATSGTIQSMHGKTQATSGTIQSMHGKTQATSGTIQSMHGKTQATSGTIQSMHGKTQATSGTIQSMHGKTQATSGTIQS
notes: also called EMT-03; gold fusion protein
Q: Which results are given for B1?
A: Kd [1]: 192 pM; koff [1]: 0.000103 s⁻¹; kon [1]: 537000 M⁻¹ s⁻¹; Kd [2]: 258 pM; koff [2]: 0.000149 s⁻¹; kon [2]: 577000 M⁻¹ s⁻¹; binding result [3]: no binding (tested: 0.5 µg antigen spotted); binding result [4]: no binding (tested: 0.5 µg antigen spotted)
